Tests used:
[1] = tested on: HuVECs (Human Umbilical Vein Endothelial Cells); test: Cell viability of HuVECs after introduction of clone; format: cell-based; settings: 16 hour time point
Excerpt: In addition to cycling these library sequences (obtained as described above) through an additional round of negative selections, 50 clones were taken from each of the Cycle 5, day five pools for sequence analysis. […] Both of the BID clones obtained from these negative selections encode N-terminal truncations of the native protein (BID Clone #1 encodes amino acids 33-195, BID Clone #2 encodes amino acids 76-195, See FIG. 9). BID clone #1 was reintroduced into fresh, naive HT29 cells and floater rates were compared with cells that had been mock infected or infected with the control vector, pVT324. […] In a similar experiment, BID clone #1 was introduced into HuVECs (Human Umbilical Vein Endothelial Cells, Clonetics/Biowhittaker) and cell viability was followed over the course of 16 hours. While control cells gave a background of 1% cell death at the 16 hour time point, 80% of the cells in the BID clone #1-infected culture died during the same period of time.

[2] = tested on: HT29 colon cancer cells; test: HT29 floater assay (negative selection); format: cell-based; settings: individual clone reintroduced into HT29 cells
Description: HT29 cells were tested for feasibility in the floater cell assay as follows. Briefly, six flasks were inoculated with 6.25×10^5 HT29 cells/flask on Day 0. On Day 1, after the cells had been allowed to adhere to the solid support, two of these flasks were infected with retroviral supernatant containing the retroviral vector pVT324, which includes a selectable drug resistant marker (e.g. neomycin), and which constitutively expresses a green fluorescent protein. Of the remaining four flasks, two were mock infected (i.e. exposed to all of the same reagents/conditions as flasks 1 and 2, minus the retrovirus, see “Example 3C”) and two were left undisturbed. On Day 2, this procedure was repeated (i.e. a double infection). On Day 3 (and subsequently on Day 5) one flask was selected from each of the three groups and processed by separating and counting the floater and adherent cell populations. In the case of the floater cell population, the media was collected, centrifuged at 200×g for 10 minutes, and resuspended in PBS prior to removing a sample for counting on a hemocytometer. For the adherent cell population, cells were first removed from the flask by trypsinization, centrifuged, and then processed for analysis in a fashion analogous to the floater cells. To determine the inherent background level of floater cells present in the population, the ratio of the number of floater cells to the total number of cells (adherent cells+floater cells) was analyzed on both the Day 3 and Day 5 flasks that had not been manipulated. These numbers were compared with the analogous numbers taken from infected and mock-infected flasks to determine whether the retrovirus or transfection procedures altered background floater rates. To determine the susceptibility of HT29 cells to retroviral infection, the fraction of cells that expressed GFP in pVT324 infected flasks was calculated using flow cytometry.
Twenty T175 flasks were seeded with 2.2×10^6 HT29 cells/flask in McCoy's 5A media (Gibco BRL) modified with 10% FBS. On Day 1, each flask was infected (4 μg/ml polybrene, 50% volume) with a retroviral supernatant containing a commercially obtained brain cDNA library (“Example Three” above). On Day 2 the media was changed. On Day 3 both the floater and adherent cell populations were collected (separately) from the twenty flasks. Approximately 652,500 floaters were isolated from a theoretical background of 4.2×10^7 adherents (1.5% floaters) and frozen down for future studies. […] Additional floater cells were then collected Day 5, where the collection and counting procedures were repeated and some 7.8×10^6 floaters and 7.6×10^8 adherents were counted (1.03% floaters). […] The floater populations of Days 3 and 5 were then combined and readied for a genomic DNA prep using a QIAamp kit (Qiagen) following standard procedures. Briefly, some 9×10^6 floater cells in PBS were lysed to release gDNA. This material was passed over a QIAamp column that was then washed several times to remove protein and RNA contaminants. Twenty-seven micrograms of genomic DNA were then eluted from the columns with dH2O and treated with RNAse A to eliminate any RNA contamination. This gDNA was then subjected to PCR procedures to amplify the library sequences encoded therein. […]

B1: BID clone #1: N-terminal truncation of BID (BH3 Interacting Domain Death Agonist), encodes amino acids 33-195 (protein, UniProt P55957 33-195, looked up, fragment)
chain: FRRELDALGHELPVLAPQWEGYDELQTDGNRSSHSRLGRIEADSESQEDIIRNIARHLAQVGDSMDRSIPPGLVNGLALQLRNTSRSEEDRNRDLATALEQLLQAYPRDMEKEKTMLVLALLLAKKVASHTPSLLRDVFHTTVNFINQNLRTYVRSLARNGMD
Question: B1 was tested. Which cells that died [1] did it give?
Answer: 80%

Question: What about the floater rate [2] of the same molecule?
Answer: roughly 18%
